Reference: PMC3775653 (Journal of the American Chemical Society, 2013)

Target: the molecule itself
Experiment: AUC

B1: AmpDh2 (zinc protease of Pseudomonas aeruginosa), recombinant, without the 17-amino-acid N-terminal membrane anchor (enzyme)
chain: SSGPRLNTDYTSANQDSRVQFIVLHYTSTDLPHSLGILTHGGVSAHYLIGDDEPATVYRLVDENRRAWHAGVSEWQGRTWLNATSIGIEIVNQGYRDTPQGRVWYPFSEAQIQALIPLLKDIAKRHGITPDRIIGHSDIAPGRKVDPGPLFPWKRLADAGLVPWPKPGELARRLAELNGQLPDVRWFQQQLARHGYLVPQTGELEKDTRDVIGAFQMKYRPARFDGEPDLETAALLLAVPTS
  stoichiometry N: 2
